Literature values as cited in US20080031874A1, “Treatment of endotoxemia using endotoxin neutralizing agents” (priority 2006, published 2008).

Columns and labels:
[1] = test system: gram-negative bacteria

B1: LBP: glycoprotein present in serum that recognizes the lipid A region of LPS (protein, UniProt P18428 26-481, looked up)
Lipopolysaccharide-binding …: ANPGLVARITDKGLQYAAQEGLLALQSELLRITLPDFTGDLRIPHVGRGRYEFHSLNIHSCELLHSALRPVPGQGLSLSISDSSIRVQGRWKVRKSFFKLQGSFDVSVKGISISVNLLLGSESSGRPTVTASSCSSDIADVEVDMSGDLGWLLNLFHNQIESKFQKVLESRICEMIQKSVSSDLQPYLQTLPVTTEIDSFADIDYSLVEAPRATAQMLEVMFKGEIFHRNHRSPVTLLAAVMSLPEEHNKMVYFAISDYVFNTASLVYHEEGYLNFSITDDMIPPDSNIRLTTKSFRPFVPRLARLYPNMNLELQGSVPSAPLLNFSPGNLSVDPYMEIDAFVLLPSSSKEPVFRLSVATNVSATLTFNTSKITGFLKPGKVKVELKESKVGLFNAELLEALLNYYILNTFYPKFNDKLAEGFPLPLLKRVQLYDLGLQIHKDFLFLGANVQYMRV
In the case of B1, the “complexes with rough and smooth form LPS” value is given as “high affinity, 1:1 stoichiometric complexes” and the “direct cytotoxicity for gram-negative bacteria” value [1] is given as “not directly cytotoxic”.
